Source: US9266964

Molecular target: T1, pKal catalytic domain Mutant 2 (human, UniProt P03952 391-638)
T1 construct: Expressed in Pichia pastoris, purified by IMAC; not shown: His tag fusion
Assay: enzyme inhibition, Ki,app on mutant and wild type pKal catalytic domain

T1 sequence (P03952 other isoform, or with tags, fused parts or gaps mutant limits assumed): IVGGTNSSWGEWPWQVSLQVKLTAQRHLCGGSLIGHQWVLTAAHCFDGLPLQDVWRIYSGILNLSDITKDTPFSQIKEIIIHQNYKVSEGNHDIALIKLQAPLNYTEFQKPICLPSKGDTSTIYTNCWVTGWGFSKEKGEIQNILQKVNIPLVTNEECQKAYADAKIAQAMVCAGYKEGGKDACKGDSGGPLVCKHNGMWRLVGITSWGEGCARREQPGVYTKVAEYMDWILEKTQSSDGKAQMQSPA

B1: M6-D09 (antibody, V domains shown)
VH: EVQLLESGGGLVQPGGSLRLSCAASGFTFSFYYMVWVRQAPGKGLEWVSVIYPSGGITVYADSVKGRFTISRDNSKNTLYLQMNSLRAEDTAVYYCARDKWAVMPPYYYYAMDVWGQGTTVTVSS
VL: DIQMTQSPSSLSASVGDRVTITCRASQSIRNYLNWYQQKPGKAPNLLIYAASTLQSGVPARFSGSGSGTDFTLTISSLQPEDFATYYCQQLSGYPHTFGQGTKLEIK
notes: Group 3 antibody; also called M06-D09; 559A-M06-D09
fold increase of Ki,app against the wild type catalytic domain: ~5 fold
